How the values were obtained:
Test in all cases: BLI; Fortebio Octet Red96; SHH002-hu1 captured on Anti-Human Fab-CH1 2nd Generation Sensor; rhFzd1/2/5/7/8 in solution at different concentrations (rhFzd7: 6.25, 25, 100, 400 nmol/L); KB buffer (0.1% BSA + 0.05% Tween 20 in PBS, pH 7.2); KD from kd/ka
Settings in all cases: both partners purified
[1] = target: T1, rhFzd5 (Homo sapiens, UniProt Q13467)
T1 construct: Frizzled-5, human, recombinant

[2] = target: T2, rhFzd7 (Homo sapiens, UniProt O75084)
T2 construct: Frizzled-7, human, recombinant; the discussion says only that the recombinant human Fzd7 extracellular CRD protein was used to immunize mice; also called recombinant human Frizzled-7

[3] = target: T3, rhFzd1 (Homo sapiens, UniProt Q9UP38)
T3 construct: Frizzled-1, human, recombinant

[4] = target: T4, rhFzd8 (Homo sapiens, UniProt Q9H461)
T4 construct: Frizzled-8, human, recombinant

[5] = target: T5, rhFzd2 (Homo sapiens, UniProt Q14332)
T5 construct: Frizzled-2, human, recombinant
T5 sequence (Q14332 24-565): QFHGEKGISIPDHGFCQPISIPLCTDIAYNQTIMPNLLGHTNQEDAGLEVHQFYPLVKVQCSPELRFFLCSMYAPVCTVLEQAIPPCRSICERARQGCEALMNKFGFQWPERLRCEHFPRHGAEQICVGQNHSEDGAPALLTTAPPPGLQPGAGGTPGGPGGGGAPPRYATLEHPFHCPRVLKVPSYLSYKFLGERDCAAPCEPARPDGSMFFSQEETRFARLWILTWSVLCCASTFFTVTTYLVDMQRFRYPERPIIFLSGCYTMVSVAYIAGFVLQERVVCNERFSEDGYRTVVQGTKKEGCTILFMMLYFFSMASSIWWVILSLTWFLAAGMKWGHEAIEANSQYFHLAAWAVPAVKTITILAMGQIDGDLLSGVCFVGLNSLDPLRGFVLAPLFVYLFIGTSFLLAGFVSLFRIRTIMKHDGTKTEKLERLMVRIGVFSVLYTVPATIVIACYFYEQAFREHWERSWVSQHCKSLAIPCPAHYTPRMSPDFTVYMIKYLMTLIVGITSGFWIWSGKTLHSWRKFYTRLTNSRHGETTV

T1 sequence (Q13467 27-585): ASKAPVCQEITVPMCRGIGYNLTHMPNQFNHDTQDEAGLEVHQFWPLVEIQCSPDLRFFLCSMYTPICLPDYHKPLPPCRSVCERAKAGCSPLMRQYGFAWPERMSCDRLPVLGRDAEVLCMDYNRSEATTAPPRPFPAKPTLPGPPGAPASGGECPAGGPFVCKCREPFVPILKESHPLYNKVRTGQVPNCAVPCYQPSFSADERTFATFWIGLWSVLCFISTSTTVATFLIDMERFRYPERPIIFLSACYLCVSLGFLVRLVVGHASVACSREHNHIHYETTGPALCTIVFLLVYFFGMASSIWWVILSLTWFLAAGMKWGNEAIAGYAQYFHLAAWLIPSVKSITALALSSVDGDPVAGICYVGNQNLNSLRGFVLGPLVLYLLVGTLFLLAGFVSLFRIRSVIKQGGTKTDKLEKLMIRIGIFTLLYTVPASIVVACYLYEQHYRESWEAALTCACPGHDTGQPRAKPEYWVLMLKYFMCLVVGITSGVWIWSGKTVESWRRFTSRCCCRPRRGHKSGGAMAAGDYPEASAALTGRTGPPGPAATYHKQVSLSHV
T4 sequence (Q9H461 28-694): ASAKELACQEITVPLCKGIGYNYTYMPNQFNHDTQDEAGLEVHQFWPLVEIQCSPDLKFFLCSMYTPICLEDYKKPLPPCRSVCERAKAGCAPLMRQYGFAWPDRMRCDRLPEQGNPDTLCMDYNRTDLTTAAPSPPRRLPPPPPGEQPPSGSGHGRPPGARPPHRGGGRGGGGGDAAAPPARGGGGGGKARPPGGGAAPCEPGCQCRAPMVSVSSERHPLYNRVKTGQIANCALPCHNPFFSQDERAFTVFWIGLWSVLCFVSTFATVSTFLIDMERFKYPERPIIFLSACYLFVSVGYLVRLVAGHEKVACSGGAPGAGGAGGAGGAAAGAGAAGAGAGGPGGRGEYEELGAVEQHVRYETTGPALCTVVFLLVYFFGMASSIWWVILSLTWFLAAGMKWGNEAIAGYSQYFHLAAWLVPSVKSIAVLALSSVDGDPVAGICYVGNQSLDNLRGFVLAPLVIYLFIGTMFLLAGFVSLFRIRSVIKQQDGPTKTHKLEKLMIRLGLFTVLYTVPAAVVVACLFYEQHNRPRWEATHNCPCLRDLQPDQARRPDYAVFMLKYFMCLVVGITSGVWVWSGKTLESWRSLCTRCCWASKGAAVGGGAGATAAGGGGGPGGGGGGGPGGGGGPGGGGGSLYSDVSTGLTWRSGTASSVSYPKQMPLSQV
T3 sequence (Q9UP38 70-647): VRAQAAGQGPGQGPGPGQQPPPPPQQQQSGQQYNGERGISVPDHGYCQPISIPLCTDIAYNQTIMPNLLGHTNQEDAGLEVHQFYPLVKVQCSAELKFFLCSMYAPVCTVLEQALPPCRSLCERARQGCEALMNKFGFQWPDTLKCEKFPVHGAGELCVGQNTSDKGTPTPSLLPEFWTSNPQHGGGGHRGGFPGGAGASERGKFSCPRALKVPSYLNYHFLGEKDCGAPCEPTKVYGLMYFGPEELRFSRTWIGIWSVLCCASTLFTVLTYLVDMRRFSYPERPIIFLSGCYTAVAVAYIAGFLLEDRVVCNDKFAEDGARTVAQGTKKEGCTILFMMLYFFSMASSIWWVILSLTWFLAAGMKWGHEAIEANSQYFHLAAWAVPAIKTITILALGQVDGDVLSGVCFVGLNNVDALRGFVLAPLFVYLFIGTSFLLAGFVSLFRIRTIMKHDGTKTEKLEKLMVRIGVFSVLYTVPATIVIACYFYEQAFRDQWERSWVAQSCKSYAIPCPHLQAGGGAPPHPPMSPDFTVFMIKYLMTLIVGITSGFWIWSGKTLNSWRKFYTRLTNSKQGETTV

B1: SHH002-hu1 (antibody, V domains shown)
VH: QVQLVQSGAEVKKPGASVKMSCKASGYTFTTYTMHWVRQAPGQGLEWIGYINPRSGYTNYNQKFQGRATVTADKSTSTAYMELSSLRSEDTAVYYCARRGYFDYWGQGTTVTVSS
VL: DIQLTQSPSSLSVSVGDRATITCRASESVDDYGNTFMHWYQQKPGKAPKLLIYLASNLQSGVPSRFSGSGSRTDFTLTISSVQAEDAATYYCQQNNEDPYTFGQGTKLEIK
notes: Whole antibody of 150 kDa (HC 50 kDa, LC 25 kDa); humanization degree 98%; detected with anti-human IgG H&L; also called humanized antibody targeting Fzd7; humanized anti-Fzd7 antibody
binding result [1]: no binding
Kd [2]: < 1 pM
koff [2]: < 1e-07 s⁻¹
kon [2]: 400000 M⁻¹ s⁻¹
binding result [3]: no binding
binding result [4]: no binding
binding result [5]: no binding
